Test [1] concerns the target T1, CD20 on the cell surface of Raji cells (human, UniProt P11836 1-297).
T1 chain: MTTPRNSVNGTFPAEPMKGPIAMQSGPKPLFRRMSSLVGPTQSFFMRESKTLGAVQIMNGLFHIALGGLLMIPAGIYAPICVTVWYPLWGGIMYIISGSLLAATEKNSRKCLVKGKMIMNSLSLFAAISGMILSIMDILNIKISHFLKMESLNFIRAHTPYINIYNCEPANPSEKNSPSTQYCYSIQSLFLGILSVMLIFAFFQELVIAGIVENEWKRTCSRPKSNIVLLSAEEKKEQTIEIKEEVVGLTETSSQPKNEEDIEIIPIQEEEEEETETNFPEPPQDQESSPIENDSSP
Briefly: FACS binding; Raji cells. (In general: Flow cytometry measures light scatter and fluorescence of single cells or particles in a stream.)

For test [2], the target named is CD3 on the cell surface of Jurkat cells (human, UniProt P07766 23-207; P04234 22-171; P09693 23-182). The test can be described thus: FACS binding; Jurkat cells.
The target of test [3] is T2, cynomolgus CD3 on primary cynomolgus T cells (UniProt Q95LI5 22-198).
T2 epsilon: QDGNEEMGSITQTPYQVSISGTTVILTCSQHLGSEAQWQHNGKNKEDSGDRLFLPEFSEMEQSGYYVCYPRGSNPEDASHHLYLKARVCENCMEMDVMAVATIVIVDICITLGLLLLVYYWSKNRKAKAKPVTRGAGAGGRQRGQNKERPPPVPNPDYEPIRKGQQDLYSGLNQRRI
The test can be described thus: FACS binding; cyno T cells.

Test [4] concerns the target T1, CD20 on the cell surface of Raji cells. Briefly: FACS binding; Raji cells.
Test [5] addresses T2, cynomolgus CD3 on primary cynomolgus T …. The test can be described thus: FACS.
For test [6], the target named is T3, cynomolgus CD20 on transiently transfected HEK 293 cells (cynomolgus, UniProt M4ZHZ6 1-297).
T3 chain: T1 chain with S25P, F31L, T51A, A157V, K217R, N226S, I227V, T239V
Briefly: FACS.

For test [7], the target named is T3, cynomolgus CD20 on transiently …. The test can be described thus: FACS binding; 293F-cynoCD20 cells.

Numbering of substitutions follows the chain as printed. Where two headings read alike, the source gives them in different places.

The EC50 is the concentration that produces a half-maximal response. Higher therefore signals a less potent agent.

B1: CD3 mAb (described in US2009/0252683) (antibody, V domains shown)
VH: EVQLLESGGGLVQPGGSLKLSCAASGFTFNTYAMNWVRQAPGKGLEWVARIRSKYNNYATYYADSVKDRFTISRDDSKNTAYLQMNNLKTEDTAVYYCVRHGNFGNSYVSWFAYWGQGTLVTVSS
VL: ELVVTQEPSLTVSPGGTVTLTCRSSTGAVTTSNYANWVQQKPGQAPRGLIGGTNKRAPGTPARFSGSLLGGKAALTLSGVQPEDEAEYYCALWYSNLWVFGGGTKLTVL
Take B1: the EC50 in test [1] is approximately 8160 nM; in test [2] it was 0.848 nM; in test [3], 1.15 nM.

B2: FIT021b (antibody)
chain 1: not shown
chain 2: MEFGLSWLFLVAILKGVQCEVQLVESGGGLVQPGRSLRLSCAASGFTFNDYAMHWVRQAPGKGLEWVSTISWNSGSIGYADSVKGRFTISRDNAKKSLYLQMNSLRAEDTALYYCAKDIQYGNYYYGMDVWGQGTTVTVSSASTKGPSVFPLAPSSKSTSGGTAALGCLVKDYFPEPVTVSWNSGALTSGVHTFPAVLQSSGLYSLSSVVTVPSSSLGTQTYICNVNHKPSNTKVDKKVEPKSC
chain 3: MDMRVPAQLLGLLLLWFPGSRCDIQLTQSPSSLSASVGDRVTMSCKSSQSVLYSANHKNYLAWYQQKPGKAPKLLIYWASTRESGVPSRFSGSGSGTDFTFTISSLQPEDIATYYCHQYLSSWTFGGGTKLEIKRTVAAPSVFIFPPSDEQLKSGTASVVCLLNNFYPREAKVQWKVDNALQSGNSQESVTEQDSKDSTYSLSSTLTLSKADYEKHKVYACEVTHQGLSSPVTKSFNRGEC
Consider B2, for which, in test [4], the half-maximal effective concentration (EC50) was found to be 7.66 nM.

B3: anti-CD20 (Ofatumumab) (antibody, V domains shown)
VH: EVQLVESGGGLVQPGRSLRLSCAASGFTFNDYAMHWVRQAPGKGLEWVSTISWNSGSIGYADSVKGRFTISRDNAKKSLYLQMNSLRAEDTALYYCAKDIQYGNYYYGMDVWGQGTTVTVSS
VL: EIVLTQSPATLSLSPGERATLSCRASQSVSSYLAWYQQKPGQAPRLLIYDASNRATGIPARFSGSGSGTDFTLTISSLEPEDFAVYYCQQRSNWPITFGQGTRLEIK
As to B3, the results for the EC50 in test [5] and in test [6] were 490 nM and 3.07 nM, respectively.

B4: FIT018a CD20 (Ofatumumab)/CD3 mAb (bispecific antibody)
chain 1: not shown
chain 2: EVQLVESGGGLVQPGRSLRLSCAASGFTFNDYAMHWVRQAPGKGLEWVSTISWNSGSIGYADSVKGRFTISRDNAKKSLYLQMNSLRAEDTALYYCAKDIQYGNYYYGMDVWGQGTTVTVSSASTKGPSVFPLAPSSKSTSGGTAALGCLVKDYFPEPVTVSWNSGALTSGVHTFPAVLQSSGLYSLSSVVTVPSSSLGTQTYICNVNHKPSNTKVDKKVEPKSC
chain 3: ELVVTQEPSLTVSPGGTVTLTCRSSTGAVTTSNYANWVQQKPGQAPRGLIGGTNKRAPGTPARFSGSLLGGKAALTLSGVQPEDEAEYYCALWYSNLWVFGGGTKLTVLGQPKAAPSVTLFPPSSEELQANKATLVCLISDFYPGAVTVAWKADSSPVKAGVETTTPSKQSNNKYAASSYLSLTPEQWKSHRSYSCQVTHEGSTVEKTVAPTECS
On to B4, for which the results for the EC50 in test [1], in test [3] and in test [7] were 16.8 nM, 3.85 nM and 14.3 nM, respectively.

These data come from patent US20190233517A1 (published 2019).
